The DeepSol protein solubility set

assay: soluble on expression in E. coli; label from the status in PepcDB or PDB records

| Sequence | soluble on expression in E. coli |
| --- | --- |
| SLPVLAPVTKDPATSLYTIPFHDGASLVLDVAGPLVWSTCKGGQPPAEIPCSSPTCLLANAYPAPGCPAPSCGSDKHDKPCTAYPYNPVSGACAAGSLSHTRFVANTTDGSKPVSKVNVGVLAACAPSKLLASLPRGSTGVAGLANSGLALPAQVASAQKVANRFLLCLPTGGPGVAIFGGGPVPWPQFTQSMPYTPLVTKGGSPAHYISARSIVVGDTRVPVPEGALATGGVMLSTRLPYVLLRPDVYRPLMDAFTKALAAQHANGAPVARAVVAVAPFGVCYDTKTLGNNLGGYAVPNVQLGLDGGSDWTMTGKNSMVDVKQGTACVAFVEMKGVAAGDGRAPAVILGGAQMEDFVLDFDMEKKRLGFSRLPHFTGCGGL | soluble |
| MFRVLHLADLHLGYRPDLPAPVREEVYRARNRVLQAAVDLALDPRQGISLVLIAGDLFDNHRPEASLVEETIRQLTRLEAAGIQVITVPGNHDEITYNDAVYRREAGRWPGLLVTDPMPAKVATLKVKGDTCHLMAMAYTGGVTRVDGPLKAFPPAEGEGVNLAVFHGSLDWDGGERSLPLDGEALAAAGYDYIALGHIHRGGQRRLGRGLAVYAGMVAGKGFADPGTGSWTIVTLGDGPARVEQVPARVTPWRLVDLDVTAFQEPEELETAVRDALDPLEHHHHHH | not soluble |
| MGSDKIHHHHHHMQDKVIPSLSAAIAKEVERRTQGVDWCETEIAGLDFYRQSAPTSCSVCVVEPSIALVVQGAKAMTLGEQTFRYDPSRFLITSLDLPAKMQVLEASEEAPYLGVVIKLDLAVMSDLMLQTPLTMQKETASDQGMILGATTPKLLGAISRLVNLLDEPESIAVLAPLIKREIYWRVLMSEQGARLRQIVSAGSHGLRIARTIEWLKVHYDQHLSVDSLADMARMSKSTFHHHFRRLTSMSPLQYQKRLRLLEARRLMLGEDIDASAAAYRVGYESPSQFSREYSRLFGASPKKDVATQWQ | not soluble |
| MGSDKIHHHHHHMTRVVIIGGSGHVGTYLVPRLVEAGYEVVNVSRGQRAAYTLNAAWKSVEPVVIDRDTEEKAGTFGEKVRALKADIVVDMISFTLDSTKQIVGALRGEVQHFLHCGTIWVYGHNTAIPATEDQPKNPFGSYGTQKAEIESWLLNEARRNGFPATVFRPGHIVGPGWEPLNPAGHFDVGVFSQIARGEPLVLPNLGNETVHHVHADDVAQMVMRAIVSWSNAVGEAFNTVSPQAINLRGYAEALYNWFGHAPRLSYEPFDTWKGKQTEENWRATWEHIARSPSHSIAKARNLLGYDPRYSSLQAVYESVEWLVANGKLSR | not soluble |
| ALPTIHVVTPTYSRPVQKAELTRMANTLLHVPNLHWLVVEDAPRRTPLTARLLRDTGLNYTHLHVETPRNYKLRGDARDPRIPRGTMQRNLALRWLRETFPRNSSQPGVVYFADDDNTYSLELFEEMRSTRRVSVWPVAFVGGLRYEAPRVNGAGKVVRWKTVFDPHRPFAIDMAGFAVNLRLILQRSQAYFKLRGVKGGYQESSLLRELVTLNDLEPKAANCTKILVWHTRTEKPVLVNEGKKGFTDPSVEI | soluble |
| MGHHHHHHSHMAQKPGTMAQMRNGTSGGDKRQYETEVIILNQCRKLNGQIFIQRDYSKGLDVQFEAEYPARLTEKVPRDVWENTIVRINRIFADAEAITPQTIFETVLGCFTCYASYAITKSTYRRKLDELQEFLNRENREIYHHVGFHIRNPMERGLRVLEISLLSRQGETPRDDVDSPGGAIRTI | not soluble |
| MGSDKIHHHHHHMRGSSNIPLDWDKLRIFHAAAEAGSFTHAADKLHLSQSAISRQVSALEQDVGVKLFHRHARGLILTEQGELLYRTAHDVLLKLETVKMQLTETTEKPSGKLRVTTTVGLGQGWLTDKVQEFLQLYPDMSIQLILDNEELDVNMRHADCAIRLRQPQQSDLIQRKLFTVHMHVYAAPSYINRYGEPQTIEDLDNHRIISFGEPAPNYLLDVNWLEVAGRSSDNRRIPHLQINSQTSIKRACLLGIGVACMPDYIVGRDPGLIQLPINAEVPSFDTYFCYPDEMKNAAKLKVFRDFIVSKARNWNF | not soluble |
| MEDRIQKAVELFKSGYNCSQSVVAAFADMYGFTQEQAVRMSASFGGGIGRMRETCGAACGLFLIAGLETGATEATDREGKAANYAVVQELAAEFKKRNGSLICGELLGLKKKEPISTVPEERNTQYYSKRPCAKMVEEAARIWVEYLEKHPK | not soluble |
| MDLGIKGKKVIVTAASKGIGLAIAKRFLEEGAKVIISSNDESNLMKAYNKLKEIHSENVSYIKADLMNPHEVKSLVHEGYRKLGGLDVLAYVTGSPKPGNLFSLSDKDWMDAFNLLLLSAVVAVREAGQLMQSGGRIILSTSTTLRQPIDNLDLSNVVRLSLAGLIKVASRELGPKGILVNGVMPGWTKTERLLQIIRDRAIREGKSEDEVLKSIVADVPLGRAGEPEEIANVVLFLASNLSTYVTGALIPVDGGSIKGVF | not soluble |
| MHTILILGAGPAGAAVALGLRRLGYPVTLVSDWRRFPALEGVSLRVLEALRGAGLEQALAQALQPSQRRVAWNGAEHAQNIEYLLDRPAFDRGLREALREAQVKLIEGRVLGVQSSEAGHRVQVQGQGEVRGEFLVEARGRQAPVLDKALRQGGGKGLRGPETVSLLNRWQGPGGSATSAVHSLEDGWAWMARREDGQCYWQLTLDVESAGLPGKAQLLEYCRQRRLGSAMAREFFAGGQEQQLHLHARSSTAILNPQACGANWLRVGDAAMAVDPLSGNGIFQSLSSALQAPAVINTLLQQPQRAALAQRFHGQRVEQLFLRFARIGRDFYADEQRWPEQPFWQARRQWPDCQPAHIAVDFSALRIERAPVLRDGLVDEAEVVITPDQPLGIWHVQGVELAPLLRRLRSQGAAQALAQLSPDQNRLIRSWLLAQGYRPLEHHHHHH | not soluble |
| MGSDKIHHHHHHMATLSTVPRIHYLRVQNFRALRNIELKNITPLTVLLGPNGSGKTTLFDVFNFLSECFQGGLRQAWDKRGRAKELKTRGADGPVVIEIKYRESKATPLITYHLSIDEGPKGPVVAEEWLAWTRGTQGRPWRFLDYRLGKGVVVGGELPDEKDERLDVPLRSAELLAVNTLGQIAQHPRVAALRDFITDWYVSYLSVDNTRTQPEAGPMEQLSKTGDNLPNVIQYLQETHPEQLQSITEVLRRRIPRLERIDATPMPDGRLLLEVKDAPFDKPVLSKFASDGTLKMLAYLTVLYDPEPPRFIGIEEPENFLHPRLLPELGEECRHASERTQLLVTTHSPFFLNSCRPDEVRILFRDEQGHTQVRTAADIEGIPEFVAAGASLGHLWIEGQFGMSDPLRNQGAPWTIEGARRGH | not soluble |
| MSLVSTRLNDSQCLVQFSCNRFAKILLGQTLIWVNPSNTRKWGKSKKVNPQITSMEPLELLKKYVRDEKLIKHCIATAAVMKSLARELGEDEEKWWTIGILHDIDYEQTQGDMEKHGLVGAEILLKEGVEEEIAEVVKRHNHMLFGDYEKPVEIALQAADSVSGLVIACALVKGGKITEVTPKTVKKKFKEKSFAAGCDRDRIRMIEKLGMPLEKLYEVAIRGLTEVKDELGLS | not soluble |
| MSLTHCKNQHCGGELGDYTGYIESPNYPGDYPANAECVWHIAPPPKRRILIVVPEIFLPIEDECGDVLVMRKSASPTSITTYETCQTYERPIAFTSRSRKLWIQFKSNEGNSGKGFQVPYVTYDEDYQQLIEDIVRDGRLYASENHQEILKDKKLIKALFDVLAHPQNYFKYTAQESKEMFPRSFIKLLRSKVSRFLRPYKEGHHHHHH | not soluble |
| MESKRNKPGKATGKGKPVGDKWLDDAGKDSGAPIPDRIADKLRDKEFKSFDDFRKAVWEEVSKDPELSKNLNPSAKSSVSKGYSPFTPKNQQVGGRKVYELHHDKPISQGGEVYDMDNIRVTTPKRHIDIHRGK | soluble |
| MSLWLQISNARIVCEDHLVEAGLAICDGLIDCFEQGGTSKAEAIDFDGDFLLPGLIDLHTDSVEHFMQPRPGVQWPSPLAAVLAHDWQLLGSGITTVLDALALGDYDSGGTRTAMLNDAIDGLTQARASGLLKTDHYFHFRCELSDPALLPIVERHVDNPGLRLISMMDHTPGQRQWHNLTLYREFRRKKNARVWNEEEFALHLAERREHQQQYVPPGRSTIGHLCRERDIRIASHDDTAAADVDESRGDGITISEFPTTVEAASRARELGMKIVMGSPNIILGGSHSGNVSALELADRGLLDVLTSDYVPGSLLHAAFALAAKGFDLPEAVAMVTKTPADLLGFSDRGRIAPGLRADLIRVRLVEGVPVIRNIWVAGRQYLEGHHHHHH | not soluble |
| MSLTFSILARDPNNGRFGVAVATCHLAVGSTVPHIRSGVGAVATQAHTNPYLGICGLERLEHHADAQDVLNSLLLDDPQRDWRQFHLIDLDGRTACWTGVECGGWAGHRHHPNLSVAGNCLAGEVVLEAMEQTFLTSDPNWKLGRRLMTALQAGEQAGGDQRASSCTSAALQVSGEAAFPLLDLRVDFRSGAVEELMELYERSQDRWAQQWRDELLELPMLNRLVAEGHHHHHH | soluble |
| MHHHHHHSSGRENLYFQGVWKSYLYQLQQEAPHPRRITCTCEVENRPKYYGREFHGMISREAADQLLIVAEGSYLIRESQRQPGTYTLALRFGSQTRNFRLYYDGKHFVGEKRFESIHDLVTDGLITLYIETKAAEYIAKMTINPIYEHVGYTTLNREPAYKKHMPVLKETHDERDSTGQDGVSEKRLTSLVRRATLKENEQIPKYEKIHNFKVHTFRGPHWCEYCANFMWGLIAQGVKCADCGLNVHKQCSKMVPNDCKPDLKHVKKVYSCDLTTLVKAHTTKRPMVVDMCIREIESRGLNSEGLYRVSGFSDLIEDVKMAFDRDGEKADISVNMYEDINIITGALKLYFRDLPIPLITYDAYPKFIESAKIMDPDEQLETLHEALKLLPPAHCETLRYLMAHLKRVTLHEKENLMNAENLGIVFGPTLMRSPELDAMAALNDIRYQRLVVELLIKNEDILF | soluble |
| MIKIGAHMPISKGFDRVPQDTVNIGGNSFQIFPHNARSWSAKLPSDEAATKFKREMKKHGIDWENAFCHSGYLINLASPKDDIWQKSVELLKKEVEICRKLGIRYLNIHPGSHLGTGEEEGIDRIVRGLNEVLNNTEGVVILLENVSQKGGNIGYKLEQLKKIRDLVDQRDRVAITYDTCHGFDSGYDITKKEGVEALLNEIESLFGLERLKMIHLNDSKYPLGAAKDRHERIGSGFIGEEGFAVFFSFKEIQEVPWILETPGGNEEHAEDIKKVFEIIEKFGIEVD | soluble |
| MVRVIIKGGVWKNTEDEILKAAIMKYGKNQWSRIASLLHRKSAKQCKARWFEWLDPGIKKTEWSREEDEKLLHLAKLMPTQWRTIAPIVGRTSAQCLERYEHLLDEAQRKAEGLDEEATETRKLKPGEIDPTPETKPARPDPIDMDDDELEMLSEARARLANTQGKKAKRKARERQLSDARRLASLQKRREMRAAGLAFARKFKPKRNQIDYSEEIPFEKHVPAGFHNPSEDRYVVEDANQKAIEDHQKPRGREIEMEMRREDREKLKKRKEQGEADAVFNIKEKKRSKLVLPEPQISDRELEQIVKIGHASDSVRQYIDGTATSGLLTDYTESARANAVAARTMRTPMLKDTVQLELENLMALQNTESALKGGLNTPLHESELGKGVLPTPKVAATPNTVLHAIAATPGTQSQFPGSTPGGFATPAGSVAATPFRDQMRINEEIAGSALEQKASLKRALASLPTPKNDFEVVGPDDDEVEGAVEDESNQDEDGWIEDASERAENKAKRNAENRVRNMKMRSQVIQRSLPKPTKVNEQATRATNSSADDMVKAEMSKLLAWDVDNKPPSVIYSREELDAAADLIKQEAESGPELNSLMWKVVEQCTSEIILSKDKFTRIAILPREEQMKALNDEFQMYRGWMNQRAKRAAKVEKKLRVKLGGYQAIHDKLCKKYQEVTTEIEMANIEKKTFERLGEHELKAINKRVGRLQQEVTTQETREKDLQKMYSKLSNKQWKLSQIEIHDAASTTSAPITY | not soluble |
